Laboratory results as given in publication PMC9453709 (2022).

B1: D2, recombinant human immunoglobulin G1 (IgG1) (antibody, V domains shown)
VH: EVQLVESGGGLVQPGRSLTLSCGASGFTFEDYAMHWVRQAPGKGLEWVSGIDWNSGVIGYADSVKGRFIISRDNAKNSLYLHMRSLTAEDTALYYCAKDVYSESGSGSYYDYWGQGTLVTVSS
VL: QSVLTQPPSVSAAPGQKVAISCSGSTSNIGDNFVSWYQQFPGTAPKLLLYDDARRPSGIPDRFSGSKSGTSATLGITGLQTGDEAVYFCSTWDNSLNVVLFGGGTKLTVL
B2: F61, recombinant human immunoglobulin G1 (IgG1) (antibody, V domains shown)
VH: EVQLVESGGGLVQPGGSLRLSCEASEIIVNRNYMNWVRQAPGKGLEWVSIIYPGGSTFYADSVKGRFTISRDNSKNTMYLQMNSLRAEDTAVYYCARSYGDFYVDFWGQGTLVTVSS
VL: QSVLTQPPSVSAAPGQKVTISCSGSSSNIGNNYVSWYQQLPGTAPKLLIYDNNKRPSGIPDRFSGSKSGTSATLGITGLQTGDEADYYCGTWDSSLSAWVFGGGTKLTVL

Assays:
[1] = molecular target: SARS-CoV-2 wild-type receptor-binding domain (WT-RBD) (SARS-CoV-2, UniProt P0DTC2 319-541); assay: ELISA
[2] = molecular target: SARS-CoV-2 wild-type spike S1 subunit (WT-S1) (SARS-CoV-2); assay: ELISA

Binder	EC50 [1] [ng/mL]	EC50 [2] [ng/mL]
B1	4.41	3.53
B2	3.01	3.12
